Assay results reported in patent US20150246136A1 (Bayer, published 2015).
Values joined by “and” are separate entries in the source; they are usually repeats but may differ in a detail not shown here. Equal entries are not always repeated.

B1: Example 280 (antibody, human IgG1, kappa, V domains shown)
VH: QVELVESGGGLVQPGGSLRLSCAASGFTFSSYGMSWVRQAPGKGLEWVSGISSLGSTTYYADSVKGRFTISRDNSKNTLYLQMNSLRAEDTAVYYCARTGSPGTFMHGDHWGQGTLVTVSS
VL: DIQMTQSPSSLSASVGDRVTITCRASQDINNYLSWYQQKPGKAPKLLIYGASNLQSGVPSRFSGSGSGTDFTLTISSLQPEDFAVYYCQQYYGRPTTFGQGTKVEIKR
modifications: linker-toxophore on cysteine S
B2: Example 282 (antibody, human IgG1, kappa, V domains shown)
VH: B1 VH
VL: B1 VL
modifications: linker-toxophore on cysteine S
B3: Example 321 (antibody, human IgG1, kappa, V domains shown)
VH: B1 VH
VL: B1 VL
modifications: linker-toxophore on cysteine S
B4: Example 322 (antibody, human IgG1, kappa, V domains shown)
VH: B1 VH
VL: B1 VL
modifications: linker-toxophore on lysine NH
B5: Example 326 (antibody, human IgG1, kappa, V domains shown)
VH: B1 VH
VL: B1 VL
modifications: linker-toxophore on lysine NH
B6: Example 281 (antibody, human IgG1, kappa, V domains shown)
VH: B1 VH
VL: B1 VL
modifications: linker-toxophore on cysteine S
B7: Example 283 (antibody, human IgG1, kappa, V domains shown)
VH: B1 VH
VL: B1 VL
modifications: linker-toxophore on cysteine S
B8: Example 325 (antibody, human IgG1, kappa, V domains shown)
VH: B1 VH
VL: B1 VL
modifications: linker-toxophore on cysteine S
B9: Example 284 (antibody, human IgG1, kappa, V domains shown)
VH: B1 VH
VL: B1 VL
modifications: linker-toxophore on cysteine S
B10: Example 323 (antibody, human IgG1, kappa, V domains shown)
VH: B1 VH
VL: B1 VL
modifications: linker-toxophore on lysine NH
B11: Example 320 (antibody, human IgG1, kappa, V domains shown)
VH: B1 VH
VL: B1 VL
modifications: linker-toxophore on cysteine S
B12: Example 315 (antibody, human IgG1, kappa, V domains shown)
VH: B1 VH
VL: B1 VL
modifications: linker-toxophore on cysteine S
B13: Example 314 (antibody, human IgG1, kappa, V domains shown)
VH: B1 VH
VL: B1 VL
modifications: linker-toxophore on lysine NH
B14: Example 327 (antibody, human IgG1, kappa, V domains shown)
VH: B1 VH
VL: B1 VL
modifications: linker-toxophore on cysteine S
B15: Example 285 (antibody, human IgG1, kappa, V domains shown)
VH: B1 VH
VL: B1 VL
modifications: linker-toxophore on cysteine S
B16: Example 324 (antibody, human IgG1, kappa, V domains shown)
VH: B1 VH
VL: B1 VL
modifications: linker-toxophore on cysteine S
B17: Example 313 (antibody, human IgG1, kappa, V domains shown)
VH: B1 VH
VL: B1 VL
modifications: linker-toxophore on cysteine S
B18: Example 155, conjugate of anti-mesothelin antibody MF-Ta (antibody, human IgG1, lambda, V domains shown)
VH: QVELVQSGAEVKKPGESLKISCKGSGYSFTSYWIGWVRQAPGKGLEWMGIIDPGDSRTRYSPSFQGQVTISADKSISTAYLQWSSLKASDTAMYYCARGQLYGGTYMDGWGQGTLVTVSS
VL: DIALTQPASVSGSPGQSITISCTGTSSDIGGYNSVSWYQQHPGKAPKLMIYGVNNRPSGVSNRFSGSKSGNTASLTISGLQAEDEADYYCSSYDIESATPVFGGGTKLTVLG
modifications: toxophore-linker, coupling residue not stated
B19: Example 366, conjugate of anti-mesothelin antibody MF-Ta (antibody, human IgG1, lambda, V domains shown)
VH: B18 VH
VL: B18 VL
modifications: toxophore-linker on Cys sulfur, sites not given
B20: Example 156, conjugate of anti-mesothelin antibody MF-Ta (antibody, human IgG1, lambda, V domains shown)
VH: B18 VH
VL: B18 VL
modifications: toxophore-linker, coupling residue not stated
B21: Example 378, conjugate of anti-mesothelin antibody MF-Ta (antibody, human IgG1, lambda, V domains shown)
VH: B18 VH
VL: B18 VL
modifications: toxophore-linker on Lys NH, sites not given
B22: Example 367, conjugate of anti-mesothelin antibody MF-Ta (antibody, human IgG1, lambda, V domains shown)
VH: B18 VH
VL: B18 VL
modifications: toxophore-linker on Lys NH, sites not given
B23: Example 377, conjugate of anti-mesothelin antibody MF-Ta (antibody, human IgG1, lambda, V domains shown)
VH: B18 VH
VL: B18 VL
modifications: toxophore-linker on Cys sulfur, sites not given
B24: Example 368, conjugate of anti-mesothelin antibody MF-Ta (antibody, human IgG1, lambda, V domains shown)
VH: B18 VH
VL: B18 VL
modifications: toxophore-linker on Lys NH, sites not given
B25: Example 380 (Diastereomer 2), conjugate of anti-mesothelin antibody MF-Ta (antibody, human IgG1, lambda, V domains shown)
VH: B18 VH
VL: B18 VL
modifications: toxophore-linker on Lys NH, sites not given
B26: Example 369, conjugate of anti-mesothelin antibody MF-Ta (antibody, human IgG1, lambda, V domains shown)
VH: B18 VH
VL: B18 VL
modifications: toxophore-linker on Lys NH, sites not given
B27: Example 379 (Diastereomer 1), conjugate of anti-mesothelin antibody MF-Ta (antibody, human IgG1, lambda, V domains shown)
VH: B18 VH
VL: B18 VL
modifications: toxophore-linker on Lys NH, sites not given
B28: Example 157, conjugate of anti-mesothelin antibody MF-Ta (antibody, human IgG1, lambda, V domains shown)
VH: B18 VH
VL: B18 VL
modifications: toxophore-linker, coupling residue not stated
B29: Example 159, conjugate of anti-mesothelin antibody MF-Ta (antibody, human IgG1, lambda, V domains shown)
VH: B18 VH
VL: B18 VL
modifications: toxophore-linker, coupling residue not stated
B30: Example 158, conjugate of anti-mesothelin antibody MF-Ta (antibody, human IgG1, lambda, V domains shown)
VH: B18 VH
VL: B18 VL
modifications: toxophore-linker, coupling residue not stated

What follows are binders tested against T1, Carboanhydrase IX (Homo sapiens, UniProt Q16790 38-459) (assay: cell-based or functional assay).

MIAPaCa 2/CA9+ IC50 [nM]	Binder
0.4	B1
0.05	B2
220	B3
172	B4
2	B5
1.2	B6
0.4	B7
137	B8
0.9	B9
238	B10
19	B11
3.2	B12
150	B13
19	B14
0.6	B15
11	B16
3.8	B17

Target: T1, Carboanhydrase IX
Test: cell-based or functional assay
Remark: another data set of the same source

EC50 (nM) HT29	EC50 (nM) SNU-5	Binder
2.9 nM	–	B1
< 0.01 nM	–	B2
1.7 nM	–	B6
0.3 nM	–	B7
0.7 nM and 1.6 nM	3 nM and 2.2 nM	B9
0.5 nM	–	B15

These binders were tested against Mesothelin (SwissProt reference Q13421-3) (Homo sapiens, UniProt Q13421 37-622) (assay: cell-based or functional assay).

IC50 (nM), HT29 meso+ cells, MTT proliferation assay [nM]	Binder
0.5	B18
1.3	B19
4.6	B20
0.04	B21
0.06	B22
1.6	B23
3.1	B24
15	B25
0.02	B26
7	B27
0.09	B28
177	B29
0.18	B30
